Measurements: patent US20220125885A1, “GLUCAGON ANALOG AGONISTS AND METHODS OF USING THE SAME” (Eli Lilly and Company, priority 2019, published 2022)
Where no end group is shown, it is not given here. [ ]: non-standard residue; d: D form. 4Pal = N[C@@H](Cc1ccncc1)C(=O)O; Dab = NCC[C@H](N)C(=O)O; Aib = CC(C)(N)C(=O)O

T1: human GIP receptor (hGIP-R) (Homo sapiens, UniProt P48546)
T1 construct: expressed in transfected cells; host or cells: HEK-293 clonal cell line
T1 sequence (P48546 22-466): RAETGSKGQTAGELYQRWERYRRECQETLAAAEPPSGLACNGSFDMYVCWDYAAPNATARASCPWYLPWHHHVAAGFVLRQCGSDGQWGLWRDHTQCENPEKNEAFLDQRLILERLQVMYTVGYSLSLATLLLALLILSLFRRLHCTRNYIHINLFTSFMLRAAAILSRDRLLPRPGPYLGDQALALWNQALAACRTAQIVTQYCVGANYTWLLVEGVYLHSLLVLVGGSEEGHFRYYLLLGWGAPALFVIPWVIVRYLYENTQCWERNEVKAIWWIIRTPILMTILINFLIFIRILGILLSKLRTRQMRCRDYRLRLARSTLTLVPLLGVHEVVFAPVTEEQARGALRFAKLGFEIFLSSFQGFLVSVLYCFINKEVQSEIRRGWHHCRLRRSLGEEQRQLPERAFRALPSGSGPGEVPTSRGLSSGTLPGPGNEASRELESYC


What was measured:
[1] = biological target: T1, human GIP receptor (hGIP-R); experiment: cAMP functional activity assay, hGIP-R HEK-293 cells; assay type: cell-based
Description: After a sixty-minute incubation at room temperature, the resulting increase in intracellular cAMP is quantitatively determined using a cAMP Dynamic 2 HTRF Assay Kit (62AM4PEJ; CisBio; Codolet, FR). Briefly, cAMP levels within the cell are detected by adding a cAMP-d2 conjugate in cell lysis buffer (10 μl) followed by an anti-cAMP-Eu3+-Cryptate antibody, also in cell lysis buffer (10 μl). […] A relative EC50 value and percent top (Emax) are derived by non-linear regression analysis using the percent maximal response vs. the concentration of peptide added, fitted to a four-parameter logistic equation.

[2] = biological target: T2, human GLP-1 receptor (hGLP-1R) (Homo sapiens, UniProt P43220); experiment: cAMP functional activity assay, hGLP-1R HEK-293 cells; assay type: cell-based; conditions: HEK293; percent of response to 10 nM GLP-1(7-36)NH2; mean ± SEM
T2 construct: expressed in transfected cells; host or cells: HEK-293 clonal cell line

in vivo = conditions: male, Yucatan miniature swine, pig, sc, 10 ug/kg
Description: 1. […] The compounds and an analog as an internal standard are extracted from […] by antibody or protein precipitations. The intact mass of the compounds are detected by a Q Exactive® Orbitrap® Mass Spectrometer (Thermo Fisher Scientific; Waltham, Mass.). 2. […] Blood is collected at pre-dose, 2, 5, 10, 15, 20, 25, 30, 45, 60, 75, 90, 120 and 150 minutes post-dose, and plasma is obtained for pharmacokinetic characterization. […] Blood is collected at pre-dose, 2, 5, 10, 15, 20, 25, 30, 45, 60, 75, 90, 120 and 150 minutes postdose, and plasma is obtained for pharmacokinetic characterization.

[3] = biological target: human GIP receptor (human) (UniProt P48546); experiment: cell-based or functional assay
human glucagon receptor [4] = biological target: T3, human glucagon receptor (human, UniProt P47871 26-477); experiment: cell-based or functional assay
human GLP-1 receptor [5] = biological target: T4, human GLP-1 receptor (human, UniProt P43220 24-463); experiment: cell-based or functional assay
human GLP-1 receptor [6] = biological target: T4, human GLP-1 receptor; experiment: cell-based or functional assay; remark: listed apart in the source
rat glucagon receptor [7] = biological target: T5, rat glucagon receptor (rat, UniProt P30082 27-485); experiment: cell-based or functional assay
human glucagon receptor [8] = biological target: T3, human glucagon receptor; experiment: SPA competition with 125I-labelled glucagon on hGCGR membranes
Description: (§1) Plates are sealed, mixed on a plate shaker, and read with a MicroBeta™ scintillation counter (PerkinElmer) after 12 hr of settling time at room temperature.

rat glucagon receptor [9] = biological target: T5, rat glucagon receptor; experiment: SPA competition with 125I-labelled glucagon on rGCGR membranes
Description: as §1
The SPA receptor binding assay and calculation of the results are carried out as described in the hGCGR binding assay.

human glucagon receptor [10] = biological target: T3, human glucagon receptor; experiment: cell-based or functional assay; remark: listed apart in the source

T3 sequence (P47871 26-477): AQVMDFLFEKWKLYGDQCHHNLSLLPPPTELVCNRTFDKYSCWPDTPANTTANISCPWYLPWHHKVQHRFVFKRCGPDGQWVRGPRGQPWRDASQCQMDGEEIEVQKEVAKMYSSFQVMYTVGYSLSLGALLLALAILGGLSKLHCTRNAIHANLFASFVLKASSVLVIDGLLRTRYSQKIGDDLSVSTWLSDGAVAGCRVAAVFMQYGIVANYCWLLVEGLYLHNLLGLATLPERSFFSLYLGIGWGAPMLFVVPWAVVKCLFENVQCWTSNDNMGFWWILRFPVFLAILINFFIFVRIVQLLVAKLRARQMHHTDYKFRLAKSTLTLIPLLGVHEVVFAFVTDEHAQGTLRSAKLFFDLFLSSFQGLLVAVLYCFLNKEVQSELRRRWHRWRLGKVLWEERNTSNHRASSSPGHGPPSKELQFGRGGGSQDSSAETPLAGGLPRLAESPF
T5 sequence (P30082 27-485): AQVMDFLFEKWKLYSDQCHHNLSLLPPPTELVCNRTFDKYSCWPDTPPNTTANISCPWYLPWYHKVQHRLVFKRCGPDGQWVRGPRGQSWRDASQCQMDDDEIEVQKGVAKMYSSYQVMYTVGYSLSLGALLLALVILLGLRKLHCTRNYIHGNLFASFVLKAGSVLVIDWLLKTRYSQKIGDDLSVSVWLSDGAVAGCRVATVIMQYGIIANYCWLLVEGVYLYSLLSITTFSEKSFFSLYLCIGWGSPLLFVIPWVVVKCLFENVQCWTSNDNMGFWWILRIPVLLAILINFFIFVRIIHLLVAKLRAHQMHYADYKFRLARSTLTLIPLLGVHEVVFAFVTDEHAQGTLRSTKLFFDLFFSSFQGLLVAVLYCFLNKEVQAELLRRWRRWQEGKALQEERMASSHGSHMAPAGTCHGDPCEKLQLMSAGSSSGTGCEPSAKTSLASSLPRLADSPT
T2 sequence (P43220 24-463): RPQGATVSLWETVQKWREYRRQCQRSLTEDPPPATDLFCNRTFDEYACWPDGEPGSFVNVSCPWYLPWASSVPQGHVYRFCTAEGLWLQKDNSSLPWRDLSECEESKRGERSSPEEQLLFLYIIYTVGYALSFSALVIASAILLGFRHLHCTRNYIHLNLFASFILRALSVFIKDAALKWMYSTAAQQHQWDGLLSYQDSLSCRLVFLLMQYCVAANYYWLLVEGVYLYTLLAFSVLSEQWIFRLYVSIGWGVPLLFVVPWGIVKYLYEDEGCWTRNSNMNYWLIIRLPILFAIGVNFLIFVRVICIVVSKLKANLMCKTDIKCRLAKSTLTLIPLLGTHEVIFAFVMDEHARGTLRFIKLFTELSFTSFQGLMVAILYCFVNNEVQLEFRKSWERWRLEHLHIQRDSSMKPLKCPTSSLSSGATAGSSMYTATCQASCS

Row | Emax at 9.95 µM ([1]; HEK293, percent of response to 10 nM GIP(1-42)NH2, Examples at 9.95 μM, read-out: Emax hGIPR) | EC50 ([1]; in the presence of FBS and BSA, read-out: cAMP EC50 hGIPR) | Emax [2] | AUC(0-inf) (in vivo; AUC0-inf) | CL/F (in vivo; CL/F) | Emax (% of response to 10 nM GIP(1-42)NH2), at 9.95 µM [3] | cAMP EC50 [3] | cAMP EC50 (human glucagon receptor [4]) | cAMP EC50 (human GLP-1 receptor [5]) | Emax (% of response to 10 nM GLP-1(7-36)NH2) (human GLP-1 receptor [6]) | cAMP EC50 (rat glucagon receptor [7]) | Ki (human glucagon receptor [8]) | Ki (rat glucagon receptor [9]) | Emax (% of response to 1 nM Glucagon) (human glucagon receptor [10]) | Molecule
1 | < 5% | > 9.95 µM | 109 ± 4% | 1.92 ng·h/mL | 87 mL/min/kg |  |  |  |  |  |  |  |  |  | CC(C)C[C@H](NC(=O)[C@H](Cc1ccncc1)NC(=O)[C@H](CCCCN)NC(=O)[C@@H](NC(=O)[C@H](Cc1ccccc1)NC(=O)[C@H](C)NC(=O)[C@H](CCC(N)=O)NC(=O)[C@H](C)NC(=O)[C@H](CCCNC(=N)N)NC(=O)[C@H](CCCNC(=N)N)NC(=O)C(C)(C)NC(=O)[C@H](CC(=O)O)NC(=O)[C@H](CC(C)C)NC(=O)[C@H](Cc1ccc(O)cc1)NC(=O)[C@H](CCCCN)NC(=O)[C@H](CO)NC(=O)[C@H](Cc1ccc(O)cc1)NC(=O)[C@H](CC(=O)O)NC(=O)[C@H](CO)NC(=O)[C@@H](NC(=O)[C@H](Cc1ccccc1)NC(=O)[C@@H](NC(=O)CNC(=O)[C@H](CCC(N)=O)NC(=O)[C@H](CO)NC(=O)[C@@H](N)Cc1c[nH]cn1)[C@@H](C)O)[C@@H](C)O)C(C)C)C(=O)N[C@@H](CC(C)C)C(=O)N[C@@H](CO)C(=O)N[C@H](C(=O)O)[C@@H](C)O [Example 2]
2 |  |  |  |  |  | < 5% | > 9.95 µM | 0.0108 nM | 1300 nM | 109% | 0.188 nM | 2.08 nM | 21.7 nM |  | HS[Dab](Ac)GTFTSDYSKYLD[Aib]RRAQAFVK[4Pal]LLST-OH (N-terminus assumed; SMILES CC(=O)NCC[C@H](NC(=O)[C@H](CO)NC(=O)[C@@H](N)Cc1c[nH]cn1)C(=O)NCC(=O)N[C@H](C(=O)N[C@@H](Cc1ccccc1)C(=O)N[C@H](C(=O)N[C@@H](CO)C(=O)N[C@@H](CC(=O)O)C(=O)N[C@@H](Cc1ccc(O)cc1)C(=O)N[C@@H](CO)C(=O)N[C@@H](CCCCN)C(=O)N[C@@H](Cc1ccc(O)cc1)C(=O)N[C@@H](CC(C)C)C(=O)N[C@@H](CC(=O)O)C(=O)NC(C)(C)C(=O)N[C@@H](CCCNC(=N)N)C(=O)N[C@@H](CCCNC(=N)N)C(=O)N[C@@H](C)C(=O)N[C@@H](CCC(N)=O)C(=O)N[C@@H](C)C(=O)N[C@@H](Cc1ccccc1)C(=O)N[C@H](C(=O)N[C@@H](CCCCN)C(=O)N[C@@H](Cc1ccncc1)C(=O)N[C@@H](CC(C)C)C(=O)N[C@@H](CC(C)C)C(=O)N[C@@H](CO)C(=O)N[C@H](C(=O)O)[C@@H](C)O)C(C)C)[C@@H](C)O)[C@@H](C)O) [Example 3 compound (glucagon analog agonist, SEQ ID NO:5)]
3 |  |  |  |  |  | < 5% | > 9.95 µM | 0.00888 nM | 1270 nM | 100% | 0.083 nM | 1.2 nM | 13.5 nM | 98% | HS[Dab](Ac)GTFTSDYSKYLD[Aib]RRAQQFVK[4Pal]LLST-OH (N-terminus assumed; SMILES CC(=O)NCC[C@H](NC(=O)[C@H](CO)NC(=O)[C@@H](N)Cc1c[nH]cn1)C(=O)NCC(=O)N[C@H](C(=O)N[C@@H](Cc1ccccc1)C(=O)N[C@H](C(=O)N[C@@H](CO)C(=O)N[C@@H](CC(=O)O)C(=O)N[C@@H](Cc1ccc(O)cc1)C(=O)N[C@@H](CO)C(=O)N[C@@H](CCCCN)C(=O)N[C@@H](Cc1ccc(O)cc1)C(=O)N[C@@H](CC(C)C)C(=O)N[C@@H](CC(=O)O)C(=O)NC(C)(C)C(=O)N[C@@H](CCCNC(=N)N)C(=O)N[C@@H](CCCNC(=N)N)C(=O)N[C@@H](C)C(=O)N[C@@H](CCC(N)=O)C(=O)N[C@@H](CCC(N)=O)C(=O)N[C@@H](Cc1ccccc1)C(=O)N[C@H](C(=O)N[C@@H](CCCCN)C(=O)N[C@@H](Cc1ccncc1)C(=O)N[C@@H](CC(C)C)C(=O)N[C@@H](CC(C)C)C(=O)N[C@@H](CO)C(=O)N[C@H](C(=O)O)[C@@H](C)O)C(C)C)[C@@H](C)O)[C@@H](C)O) [Example 4 compound (glucagon analog agonist, SEQ ID NO:6)]
4 |  |  |  |  |  | < 5% | > 9.95 µM | 0.0143 nM | 181 nM | 105% | 0.135 nM | 3.18 nM | 17.4 nM | 103% | HSQGTFTSDYSKYLD[Aib]RRAQQFVK[4Pal]LLST-OH (N-terminus assumed; SMILES CC(C)C[C@H](NC(=O)[C@H](Cc1ccncc1)NC(=O)[C@H](CCCCN)NC(=O)[C@@H](NC(=O)[C@H](Cc1ccccc1)NC(=O)[C@H](CCC(N)=O)NC(=O)[C@H](CCC(N)=O)NC(=O)[C@H](C)NC(=O)[C@H](CCCNC(=N)N)NC(=O)[C@H](CCCNC(=N)N)NC(=O)C(C)(C)NC(=O)[C@H](CC(=O)O)NC(=O)[C@H](CC(C)C)NC(=O)[C@H](Cc1ccc(O)cc1)NC(=O)[C@H](CCCCN)NC(=O)[C@H](CO)NC(=O)[C@H](Cc1ccc(O)cc1)NC(=O)[C@H](CC(=O)O)NC(=O)[C@H](CO)NC(=O)[C@@H](NC(=O)[C@H](Cc1ccccc1)NC(=O)[C@@H](NC(=O)CNC(=O)[C@H](CCC(N)=O)NC(=O)[C@H](CO)NC(=O)[C@@H](N)Cc1c[nH]cn1)[C@@H](C)O)[C@@H](C)O)C(C)C)C(=O)N[C@@H](CC(C)C)C(=O)N[C@@H](CO)C(=O)N[C@H](C(=O)O)[C@@H](C)O) [Example 1 compound (glucagon analog agonist, SEQ ID NO:3)]
5 |  |  |  |  |  | < 5% | > 9.95 µM | 0.0265 nM | 250 nM | 109% | 0.204 nM | 6.87 nM | 34.2 nM |  | HSQGTFTSDYSKYLD[Aib]RRAQAFVK[4Pal]LLST-OH (N-terminus assumed; SMILES CC(C)C[C@H](NC(=O)[C@H](Cc1ccncc1)NC(=O)[C@H](CCCCN)NC(=O)[C@@H](NC(=O)[C@H](Cc1ccccc1)NC(=O)[C@H](C)NC(=O)[C@H](CCC(N)=O)NC(=O)[C@H](C)NC(=O)[C@H](CCCNC(=N)N)NC(=O)[C@H](CCCNC(=N)N)NC(=O)C(C)(C)NC(=O)[C@H](CC(=O)O)NC(=O)[C@H](CC(C)C)NC(=O)[C@H](Cc1ccc(O)cc1)NC(=O)[C@H](CCCCN)NC(=O)[C@H](CO)NC(=O)[C@H](Cc1ccc(O)cc1)NC(=O)[C@H](CC(=O)O)NC(=O)[C@H](CO)NC(=O)[C@@H](NC(=O)[C@H](Cc1ccccc1)NC(=O)[C@@H](NC(=O)CNC(=O)[C@H](CCC(N)=O)NC(=O)[C@H](CO)NC(=O)[C@@H](N)Cc1c[nH]cn1)[C@@H](C)O)[C@@H](C)O)C(C)C)C(=O)N[C@@H](CC(C)C)C(=O)N[C@@H](CO)C(=O)N[C@H](C(=O)O)[C@@H](C)O) [Example 2 compound (glucagon analog agonist, SEQ ID NO:4)]
